According to patent US20200237885A1, “VACCINES FOR TREATMENT AND PREVENTION OF CANCER” (Agenus Inc., priority 2015, published 2020):
Where no end group is shown, it is not given here. [ ]: non-standard residue; d: D form. pS = N[C@@H](COP(=O)(O)O)C(=O)O

What was measured:
recombinant human Hsc70 [1] = molecular target: T1, recombinant human Hsc70 (Homo sapiens, UniProt P11142); experiment: Hsc70-peptide complex formation by size exclusion chromatography (SEC); assay type: binding; conditions: for Percentage of Hsc70 loaded with peptide: peptide:Hsc70 4:1 molar excess, PBS 37° C. 1 hour
T1 construct: purchased Biomay AG
T1 sequence (P11142 whole entry): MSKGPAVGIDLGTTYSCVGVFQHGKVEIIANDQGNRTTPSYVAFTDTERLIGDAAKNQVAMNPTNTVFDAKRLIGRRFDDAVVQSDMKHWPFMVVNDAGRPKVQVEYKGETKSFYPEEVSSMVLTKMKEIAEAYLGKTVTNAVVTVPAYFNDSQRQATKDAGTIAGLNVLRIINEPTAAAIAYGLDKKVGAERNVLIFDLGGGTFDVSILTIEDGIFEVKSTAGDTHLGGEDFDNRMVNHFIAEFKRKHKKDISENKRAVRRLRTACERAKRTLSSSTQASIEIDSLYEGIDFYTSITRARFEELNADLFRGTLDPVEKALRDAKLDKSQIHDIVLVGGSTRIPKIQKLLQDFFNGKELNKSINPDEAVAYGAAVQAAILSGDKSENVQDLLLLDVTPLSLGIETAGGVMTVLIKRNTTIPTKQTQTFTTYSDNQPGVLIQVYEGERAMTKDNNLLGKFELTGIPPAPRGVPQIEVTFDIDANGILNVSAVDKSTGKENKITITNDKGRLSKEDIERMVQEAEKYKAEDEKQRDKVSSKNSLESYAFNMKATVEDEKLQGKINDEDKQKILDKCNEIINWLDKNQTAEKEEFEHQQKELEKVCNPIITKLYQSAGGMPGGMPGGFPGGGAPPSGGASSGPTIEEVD
Text: Hsc70-peptide complex formation was examined in vitro using size exclusion chromatography (SEC). Hsc70 resolves in two main peaks on a size exclusion column, with one peak corresponding to its monomeric form and the other peak to an oligomeric form (FIG. 14). Hsc70 undergoes a conformational change upon binding peptide (Zhuravleva and Gierasch, P.N.A.S. 112[22]:E2865-73 [2015]), resulting in the appearance of a new peak on the SEC chromatogram that corresponds to the peptide-bound form (FIG. 15). By measuring the surface area of each of the peaks corresponding to the forms of Hsc70 on a chromatogram, the percentage of Hsc70 complexed with a peptide can be determined. The effect of the molar ratio of Hsc70 to peptide on Hsc70-peptide complex formation was determined by combining Hsc70 and a test peptide at Hsc70/peptide molar ratios of 1:4, 1:10, 1:20, and 1:50, and then resolving the resulting mixtures by SEC to determine the extent of complex formation. The peptide used in these experiments was the immunogenic peptide B16-M27 (“M27”), containing a B16-F10 melanoma-specific mutation, as described in Kreiter et al., Nature 520(7549):692-6 (2015) (also described in Examples 9-11). The effect on complex formation of appending a high affinity Hsc70-binding peptide sequence to a chicken ovalbumin peptide having the amino acid sequence SIINFEKL (SEQ ID NO:448), that is highly immunogenic in mice (Zehn et al, Nature 458:211-214 [12 Mar., 2009]) was also tested. The high affinity Hsc70 binding sequence, NLLRLTG (SEQ ID NO:439) was appended to either the C- or N-terminus of the ovalbumin peptide, and was linked to the ovalbumin peptide by a linker having the sequence FFRK (SEQ ID NO:447), as disclosed in U.S. Pat. No. 7,309,491.
Standard size exclusion chromatography was carried out using 7 μM of recombinant human Hsc70 (Genbank Accession No. P11142.1) (Biomay AG) in a reaction buffer containing 20 mM HEPES and 200 mM KCL in a final volume of 50 μl. Reactions were incubated at 37° C. for 1 or 2 hours and centrifuged 2 min at 13000 RPM. Reaction products (10 μg) were resolved on a TSKgel SuperSW3000, 4 μm particle size, 25 nm pore size gel filtration chromatography column (Tosoh Bioscience). For reactions containing peptide, peptide was included in the reaction mixtures at Hsc70:peptide molar ratios of 1:4, 1:10, 1:20, and 1:50. The percentage of Hsc70 complexed with peptide in each reaction mixture was calculated by measuring the surface area of the appropriate peak.
The peptides listed above were individually incubated with Hsc70 in PBS at 37° C. for 1 hour to form non-covalent Hsc70-peptide complexes. For M27 and M30, the peptides were added to Hsc70 at a 20:1 molar excess (peptide:Hsc70) while for M27-Jav and M30-Jav, the peptides were added at a 4:1 molar excess. After incubation, the mixtures were diluted 10 times in PBS at 4° C. and concentrated using a 30 kDa MW cut off Millipore® Amicon® centrifugal filter to separate Hsc70-peptide complexes from free, uncomplexed peptide. The retained complexes 5 Hsc70-M27 and Hsc70-M30 were pooled and subsequently analyzed by size exclusion chromatography (SEC) to quantify the proportion of Hsc70 molecules loaded with peptide. […] The same pooling, filtration and SEC analysis steps were followed for the Hsc70-M27-Jay and Hsc70-M30-Jav complexes with the observation that 73% of the Hsc70 molecules were loaded with the peptides.
Four peptides (Table 9) containing a phosphorylated serine residue were synthesized to 95% purity (GenScript, Cambridge, Mass.). The peptides comprise HLA-A*02:01 binding epitopes of the CDC25 or IRS-2 antigen modified at either their C-termini or N-termini with the addition of a linker sequence FFRK (SEQ ID NO:447) and a high affinity HSP binding peptide sequence NLLRLTG (SEQ ID NO: 439). These peptides were individually incubated with Hsc70 in PBS at 37° C. for 1 hour at a 4:1 molar excess (peptide:Hsc70) to form non-covalent Hsc70-peptide complexes. […]

recombinant human Hsc70 [2] = molecular target: T1, recombinant human Hsc70; experiment: as above; assay type: binding
[3] = Hsc70:peptide molar ratio 1:10, 37° C.

| Substance | Percentage of Hsc70 loaded with peptide (recombinant human Hsc70 [1]) [%] | percentage of Hsc70 complexed with peptide (recombinant human Hsc70 [1]; [3]) | other results |
| --- | --- | --- | --- |
| GLLG{pSer}PVRAFFRKNLLRLTG (GLLG[pS]PVRAFFRKNLLRLTG) [SEQ ID NO 474] | 74 | – | – |
| NLLRLTGFFRKGLLG{pSer}PVRA (NLLRLTGFFRKGLLG[pS]PVRA) [SEQ ID NO 473] | 41 | – | – |
| NLLRLTGFFRKRVA{pSer}PTSGV (NLLRLTGFFRKRVA[pS]PTSGV) [SEQ ID NO 475] | 34 | – | – |
| REGVELCPGNKYEMRRHGTTHSLVIHD (M27) | – | approximately 40% | percentage of Hsc70 bound to peptide (recombinant human Hsc70 [1]; Hsc70:peptide molar ratio 1:4, 37° C.): 20%; percentage of Hsc70 complexed with peptide (recombinant human Hsc70 [1]; Hsc70:peptide molar ratio 1:20, 37° C.): approximately 50%; percentage of Hsc70 complexed with peptide (recombinant human Hsc70 [1]; Hsc70:peptide molar ratio 1:50, 37° C.): approximately 65%; change in extent of complex formation with incubation time (recombinant human Hsc70 [2]; incubation time increased from 2 to 3 hours at 37° C.): only a minor increase |
| RVA{pSer}PTSGVFFRKNLLRLTG (RVA[pS]PTSGVFFRKNLLRLTG) [SEQ ID NO 476] | 75 | – | – |
| SIINFEKLFFRKNLLRLTG [SEQ ID NO:449, reference compound] | – | over 90% | extent of complex formation, NLLRLTG at C-terminus compared to N-terminus (recombinant human Hsc70 [2]; Hsc70:peptide molar ratio 1:2, same result at 1:5): significantly greater |
